Data taken from patent US20250282887A1 (Amgen, published 2025).

T1: human MAGEB3 (human, UniProt O15480 1-346)
T1 construct: whole, on cells; Transfected into CHO cells with Myc/DDK tags
T1 sequence (looked up): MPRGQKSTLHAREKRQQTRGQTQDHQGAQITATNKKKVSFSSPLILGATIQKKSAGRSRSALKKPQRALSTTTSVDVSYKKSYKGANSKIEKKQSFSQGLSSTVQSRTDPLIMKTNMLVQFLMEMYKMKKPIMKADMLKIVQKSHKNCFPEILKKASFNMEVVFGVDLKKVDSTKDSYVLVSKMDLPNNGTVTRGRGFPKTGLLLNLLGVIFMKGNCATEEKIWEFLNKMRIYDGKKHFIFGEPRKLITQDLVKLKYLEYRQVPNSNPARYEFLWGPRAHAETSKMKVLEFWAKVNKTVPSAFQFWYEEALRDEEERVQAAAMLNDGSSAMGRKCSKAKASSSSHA

T2: human MAGEB10 (human, UniProt Q96LZ2 1-347)
T2 construct: whole, on cells; FFPE cell pellets
T2 sequence (looked up): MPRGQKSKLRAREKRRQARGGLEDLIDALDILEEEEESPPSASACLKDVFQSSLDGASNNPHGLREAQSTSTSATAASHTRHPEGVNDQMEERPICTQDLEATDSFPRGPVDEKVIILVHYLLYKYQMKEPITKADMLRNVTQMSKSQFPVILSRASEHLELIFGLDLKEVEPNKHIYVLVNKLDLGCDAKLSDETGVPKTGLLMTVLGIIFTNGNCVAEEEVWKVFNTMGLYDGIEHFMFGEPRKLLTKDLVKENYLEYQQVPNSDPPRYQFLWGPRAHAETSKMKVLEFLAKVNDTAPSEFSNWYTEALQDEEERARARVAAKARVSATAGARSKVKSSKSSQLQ


Legend:
[1] = biological target: T1, human MAGEB3; assay: IHC, FFPE CHO cells transfected with human MAGEB3
From the text: (§1) Negative control cells included parental Chinese hamster ovary (CHO) cells, CHO cells stably transfected with mCherry Vector Control (minus Myc/DDK tags), CHO cells stably transfected with mCherry-human DCAF4L2 (plus Myc/DDK tags). The cross-reactivity control cells included CHO cells transfected with mCherry Vector Control (plus Myc/DDK tags) with one of the human MAGE-B or MAGE-A family members (MAGEA1, MAGEA2, MAGEA3, MAGEA4, MAGEA5, MAGEA6, MAGEA8, MAGEA9, MAGEA11, MAGEA12, MAGEB1, MAGEB3, MAGEB4, MAGEB5, MAGEB6, MAGEB10, MAGEB16, MAGEB17, MAGEB18). Positive control cell lines included CHO cells transfected with mCherry Vector (plus Myc/DDK tags) with human MAGE-B2 or CHO cells transfected with mCherry Vector (open reading frame (ORF); minus Myc/DDK tags) with human MAGEB2, and thirteen human cancer cell lines with known endogenous RNA expression level of MAGEB2 (U266B1, T98G, KMM-1, U20S, CFPAC-1, SCaBER, UACC-257, CFPAC-1, VMRC-LCD, NCI-H1703, UM-UC-3, NCI-H1395, NCIH82).
(§2) FFPE samples were sectioned at 4 μm and mounted on positive charged glass slides. After mounting, paraffin sections were air-dried at room temperature. FFPE TMA samples were received as freshly sectioned and mounted on glass slides. The fully automated IHC assay was performed on a Discovery Ultra Stainer (Ventana Medical Systems, Tucson, AZ) using Ventana Anti-Rabbit HQ (cat #760-4815), Ventana Anti-HQ HRP (cat #760-4820), and Ventana Antibody Diluent with Casein (cat #760-219) (Ventana Medical Systems, Tucson, AZ). The slides were baked on the Discovery Ultra Stainer at 60° C. for 8 minutes, de-paraffinized with Ventana Discovery wash (cat #950-510) for 3 cycles (8 minutes each) at 69° C., and underwent cell conditioning (target retrieval) at 95° C. for 16 minutes (for cell arrays) or 32 minutes (tissues or TMAs) in CC1 buffer (cat #950-500). Following this, slides were incubated with Background Sniper (cat #BS966M, Biocare Medical, Pacheco, CA) in a Ventana Option Prep kit (cat #771-751) for 28 minutes, incubated with CM inhibitor (a part of the Ventana DAB kit cat #760-159) for 12 minutes, and incubated for 1 h at RT with MAGE-B2 antibody diluted with Ventana diluent with Casein in a Ventana Prep kit (cat #770-001) (working concentration at 0.1 μg/ml for cell pellet, or 1-5 ug/ml for tissues) or with a matched concentration of isotype control Rabbit IgG1 antibody.

[2] = biological target: T2, human MAGEB10; assay: IHC, FFPE CHO cells transfected with human MAGEB10
From the text: as §1, §2

Row | binding result [1] | binding result [2] | Binder
1 | no binding (tested: 0.1 µg/ml) | no binding (tested: 0.1 µg/ml) | 1I14 (antibody, V domains shown, also called MAGE-B2 (1i14)) VH: QSVEESGGRLVTPGTPLTLTCTISGFSLSSYAMSWVRQAPGKGLEWIGSIGGGGSAVYASWAKGRFTISKTSTTVDLRITSPTTEDTAMYFCGRGFYSIDLWGPGTLVTVSS VL: DVVMTQTPASVEATVGGTVTIKCQSSQSVYDNNALAWYQQNAGQRPRLLIYGASTLASGVPSRFSASGSGTEFTLTISDLECADAATYYCQCTYYVSSYQNDFGGGTEVVVKG
2 | no binding (tested: 0.1 µg/ml) | no binding (tested: 0.1 µg/ml) | 1C3 (antibody, V domains shown, also called MAGE-B2 (IC3); anti-MAGEB2 antibody 1C3) VH: QSLEESGGGLVQPEGSLTLTCTAFGVTLTNYYICWVRQAPGKGLEWVGCIDNANGRTYYASWAKGRFTISKTSSTTGTLQMTSLTAADTATYFCARSLATPLWGPGTLVTVSS VL: DIVMTQTPSSVEAAVGGTVTIKCQASQNISSYLAWYQQKPGQPPKLLIYRASTLASGVPSRFKGSGSGTQFTLTISDLECADAATYYCQSYDDSRSSNFFYAFGGGTEVVVKG
3 | no binding (tested: 0.1 µg/ml) | no binding (tested: 0.1 µg/ml) | 4G17 (antibody, IgG1, V domains shown, Rabbit monoclonal IgG1; Tested as supernatant and as small batch purified antibody; also called MAGE-B2 (4G17); anti-MAGEB2 antibody 4G17) VH: QSLEESGGGLVQPEGSLTLTCTASGVTLSNYYICWVRQAPGKGLEWIGCIDNVNGRTYYASWAKGRFTISKTSSTTGTLQMTSLTAADTATYFCARSLATPLWGPGTLVTVSS VL: DIVMTQTPASVEAAVGGTVTIKCQASQNIDSYLAWYQQKPGQPPKLLIYRASTLASGVPSRFKGSGSGTEFTLTISDLECADAATYYCQSYDDSRSSSFFYGFGGGTEVVVK
4 | no binding (tested: 0.1 µg/ml) | no binding (tested: 0.1 µg/ml) | 1J15 (antibody, IgG1, V domains shown, Rabbit monoclonal IgG1; Tested as supernatant and as small batch purified antibody; also called MAGE-B2 (IJ15); anti-MAGEB2 antibody 1J15) VH: QSLEESGGGLVQPEGSLTLTCTAFGFTLNNYYICWVRQAPGKGLEWIACIDNANGRTYYASWAKGRFTISKTSSTTVTLQMTSLTAADTATYFCARSLSTPLWGPGTLVTVSS VL: DIVMTQTPASVEAAVGGTVTIKCQASQSISSYLSWYQQKPGQPPKLLIYRASTLASGVPSRFRGSGSGTQFTLTISDLECADAATYYCQSYDDSSDNNFFYGFGGGTEVVVR
